According to PMC3168981 (Nature structural & molecular biology, 2011):

Molecular target: T1, AlexaFluor488-labeled human PLCβ3-Δ892 R872A L876A L879A triple mutant (human, UniProt Q01970 10-891, R872A | L876A | L879A)
T1 sequence: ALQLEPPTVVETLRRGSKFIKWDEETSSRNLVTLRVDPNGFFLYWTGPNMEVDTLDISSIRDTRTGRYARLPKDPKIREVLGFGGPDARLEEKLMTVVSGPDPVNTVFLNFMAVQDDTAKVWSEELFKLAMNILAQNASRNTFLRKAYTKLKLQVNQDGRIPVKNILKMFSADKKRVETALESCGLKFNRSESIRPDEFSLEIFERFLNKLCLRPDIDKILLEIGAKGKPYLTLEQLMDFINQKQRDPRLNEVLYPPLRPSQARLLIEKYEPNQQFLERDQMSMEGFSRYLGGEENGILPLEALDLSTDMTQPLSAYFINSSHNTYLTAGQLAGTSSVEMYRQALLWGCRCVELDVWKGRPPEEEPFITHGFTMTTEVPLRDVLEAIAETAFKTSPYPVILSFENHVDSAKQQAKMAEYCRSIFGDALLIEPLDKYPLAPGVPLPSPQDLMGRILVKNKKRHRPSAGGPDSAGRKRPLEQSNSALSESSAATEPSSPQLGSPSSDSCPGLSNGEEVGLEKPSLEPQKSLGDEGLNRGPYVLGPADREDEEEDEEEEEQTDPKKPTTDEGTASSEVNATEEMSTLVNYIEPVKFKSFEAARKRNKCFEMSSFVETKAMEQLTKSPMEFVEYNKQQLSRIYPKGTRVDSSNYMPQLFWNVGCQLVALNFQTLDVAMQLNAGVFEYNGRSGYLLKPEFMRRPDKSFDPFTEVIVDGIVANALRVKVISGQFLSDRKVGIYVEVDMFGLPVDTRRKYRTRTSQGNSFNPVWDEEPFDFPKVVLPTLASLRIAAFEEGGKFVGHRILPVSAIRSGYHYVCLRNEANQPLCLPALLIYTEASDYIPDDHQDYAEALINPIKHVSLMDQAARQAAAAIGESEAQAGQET
Experiment: flow cytometry protein interaction assay

- Kd: 20.5 nM
B1: Gαi/q chimera (murine Gαq with its N-terminal helix replaced with that of Gαi), biotinylated, AlF4-activated (other)
chain: MGCTLSAEDKAAVERSKMIDRNLREDGEKARRELKLLLLGTGESGKSTFIKQMRIIHGSGYSDEDKRGFTKLVYQNIFTAMQAMIRAMDTLKIPYKYEHNKAHAQLVREVDVEKVSAFENPYVDAIKSLWNDPGIQECYDRRREYQLSDSTKYYLNDLDRVADPSYLPTQQDVLRVRVPTTGIIEYPFDLQSVIFRMVDVGGQRSERRKWIHCFENVTSIMFLVALSEYDQVLVESDNENRMEESKALFRTIITYPWFQNSSVILFLNKKDLLEEKIMYSHLVDYFPEYDGPQRDAQAAREFILKMFVDLNPDSDKIIYSHFTCATDTENIRFVFAAVKDTILQLNLKEYNLV
modifications: biotinylated (sites not given)
